From paper PMC6555819, “Comprehensive study of nuclear receptor DNA binding provides a revised framework for understanding receptor specificity” come the findings set out here.

Sequences and labels used below:
B1: NRC3_wobSeed58_DR2_A9T_o1 (dsDNA)
DNA 1: GCATCGAATGGTCGTGAGGTGAGTATACAGAAAGGCGCGATTGACAGCGTAGAATGAAGG
DNA 2: CCTTCATTCTACGCTGTCAATCGCGCCTTTCTGTATACTCACCTCACGACCATTCGATGC
B2: NRC3_wobSeed82_DR3_A9C_o1 (dsDNA)
DNA 1: GCATCGAACGGTCGACGAGGTGAGTATACACCGTTTGCGATTGACAGCGTAGAATGAAGG
DNA 2: CCTTCATTCTACGCTGTCAATCGCAAACGGTGTATACTCACCTCGTCGACCGTTCGATGC
B3: NRC3_wobSeed44_DR1_G10A_o1 (dsDNA)
DNA 1: GCTGAATGAAGTTAAAGATCAGGGAACGTGGCGTCGGCGATTGACAGCGTAGAATGAAGG
DNA 2: CCTTCATTCTACGCTGTCAATCGCCGACGCCACGTTCCCTGATCTTTAACTTCATTCAGC
B4: NRC3_wobSeed44_DR1_G10C_o1 (dsDNA)
DNA 1: GCTGAATGACGTTAAAGATCAGGGAACGTGGCGTCGGCGATTGACAGCGTAGAATGAAGG
DNA 2: CCTTCATTCTACGCTGTCAATCGCCGACGCCACGTTCCCTGATCTTTAACGTCATTCAGC
B5: NRC3_wobSeed134_DR5_C13T_o1 (dsDNA)
DNA 1: GCGCTGCTAGGTTAACTGATGGTCAGCTAAAGCTCGGCGATTGACAGCGTAGAATGAAGG
DNA 2: CCTTCATTCTACGCTGTCAATCGCCGAGCTTTAGCTGACCATCAGTTAACCTAGCAGCGC
B6: NRC3_wobSeed136_DR5_G21C_o1 (dsDNA)
DNA 1: GCTAGCCTAGGTCATTCAGGCGCCAGTATAGAAAGCGCGATTGACAGCGTAGAATGAAGG
DNA 2: CCTTCATTCTACGCTGTCAATCGCGCTTTCTATACTGGCGCCTGAATGACCTAGGCTAGC
B7: NRC3_wobSeed100_DR4_A24C_o1 (dsDNA)
DNA 1: GCCCTACTGGGCCACGAAAGGTCCTTGATTCAGTGAGCGATTGACAGCGTAGAATGAAGG
DNA 2: CCTTCATTCTACGCTGTCAATCGCTCACTGAATCAAGGACCTTTCGTGGCCCAGTAGGGC
B8: NRC3_wobSeed124_DR5_C24T_o1 (dsDNA)
DNA 1: GCCCTACTGGGCCATTCAGAGGTTATTGATCATATGGCGATTGACAGCGTAGAATGAAGG
DNA 2: CCTTCATTCTACGCTGTCAATCGCCATATGATCAATAACCTCTGAATGGCCCAGTAGGGC
B9: NRC3_wobSeed30_DR1_C20G_o1 (dsDNA)
DNA 1: GCACTAGCAGGCCAAGGGTGACTCAAGATTAGTCCGGCGATTGACAGCGTAGAATGAAGG
DNA 2: CCTTCATTCTACGCTGTCAATCGCCGGACTAATCTTGAGTCACCCTTGGCCTGCTAGTGC
B10: NRC3_wobSeed34_DR1_G10A_o1 (dsDNA)
DNA 1: GCATCGAAAAGTCGAAGGTGAGTATACCCACCCGAAGCGATTGACAGCGTAGAATGAAGG
DNA 2: CCTTCATTCTACGCTGTCAATCGCTTCGGGTGGGTATACTCACCTTCGACTTTTCGATGC
B11: NRC3_wobSeed18_DR0_G9C_o1 (dsDNA)
DNA 1: GCGATACACGGTCAAGGCCAGAGTACGCGTATTGATGCGATTGACAGCGTAGAATGAAGG
DNA 2: CCTTCATTCTACGCTGTCAATCGCATCAATACGCGTACTCTGGCCTTGACCGTGTATCGC
B12: NRC3_wobSeed69_DR2_G10A_o1 (dsDNA)
DNA 1: GCAGTCAAAATTCACTAGGTAACGTAAGATTCAGCTGCGATTGACAGCGTAGAATGAAGG
DNA 2: CCTTCATTCTACGCTGTCAATCGCAGCTGAATCTTACGTTACCTAGTGAATTTTGACTGC
B13: NRC3_wobSeed17_DR0_G16C_o1 (dsDNA)
DNA 1: GCATATGTAGGTTAGCGTCATTCAGAAAGTAGGGAAGCGATTGACAGCGTAGAATGAAGG
DNA 2: CCTTCATTCTACGCTGTCAATCGCTTCCCTACTTTCTGAATGACGCTAACCTACATATGC

For the data set, the target named is RXRa (Homo sapiens, UniProt P19793). Nature of the data set: no ligand; PBM; 180 nM; PBS pH 7.4, 2% milk, 0.02% Triton X-100, 1 mM DTT, BSA, 0.4 mg/ml salmon testes DNA. The settings on record: tags: His cleaved; chain copies: 2; label: surface-attached array probe.
Sequence of RXRa (P19793 whole entry): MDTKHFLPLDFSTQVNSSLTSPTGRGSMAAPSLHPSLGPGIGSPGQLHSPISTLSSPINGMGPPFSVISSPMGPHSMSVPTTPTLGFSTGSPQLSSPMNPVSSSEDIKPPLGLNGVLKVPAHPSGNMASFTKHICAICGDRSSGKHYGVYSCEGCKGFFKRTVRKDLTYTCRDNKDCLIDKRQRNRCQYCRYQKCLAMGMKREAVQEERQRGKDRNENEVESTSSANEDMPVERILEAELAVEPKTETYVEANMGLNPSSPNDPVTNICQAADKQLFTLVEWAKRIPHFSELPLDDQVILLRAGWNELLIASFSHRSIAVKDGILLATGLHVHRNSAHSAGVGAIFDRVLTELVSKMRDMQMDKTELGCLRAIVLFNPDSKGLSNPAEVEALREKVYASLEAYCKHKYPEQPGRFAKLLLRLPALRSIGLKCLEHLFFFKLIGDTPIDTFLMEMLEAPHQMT
In the case of B1, the binding signal is 0.34 PBM z-score against 500 random probes. The value for B2 was 0.44 PBM z-score against 500 random probes. The value for B3 was 0.44 PBM z-score against 500 random probes; that for B4 was 0.4 PBM z-score against 500 random probes; that for B5 was 0.49 PBM z-score against 500 random probes.

Consider B6, for which the binding signal is 3 PBM z-score against 500 random probes. The value for B7 was 0.26 PBM z-score against 500 random probes. The value for B8 was 0.48 PBM z-score against 500 random probes; that for B9 was 0.36 PBM z-score against 500 random probes; that for B10 was 0.45 PBM z-score against 500 random probes. The value for B11 was 0.39 PBM z-score against 500 random probes; that for B12 was 0.46 PBM z-score against 500 random probes. Regarding B13, the binding signal is 0.46 PBM z-score against 500 random probes.
